Literature values in publication PMC5490247.
Where two headings read alike, the source gives them in different places.

What was measured:
IL-6R (Homo sapiens) [1] = target: IL-6R (Homo sapiens) (UniProt P08887)
IL-6R (Homo sapiens) [2] = target: IL-6R (Homo sapiens) (UniProt P08887); remark: listed apart in the source

UniProt P08887, sequence (P08887 20-355): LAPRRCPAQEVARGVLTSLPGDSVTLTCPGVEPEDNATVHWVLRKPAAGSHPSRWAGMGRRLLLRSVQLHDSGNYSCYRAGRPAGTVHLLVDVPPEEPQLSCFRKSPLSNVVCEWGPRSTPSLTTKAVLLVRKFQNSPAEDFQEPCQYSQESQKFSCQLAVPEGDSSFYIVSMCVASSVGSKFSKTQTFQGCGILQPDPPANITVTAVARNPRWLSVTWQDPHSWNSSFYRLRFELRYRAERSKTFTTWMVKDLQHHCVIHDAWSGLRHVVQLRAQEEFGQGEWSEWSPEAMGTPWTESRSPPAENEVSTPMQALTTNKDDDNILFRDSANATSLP

Kd (IL-6R (Homo sapiens) [1]) [nM] | Kd (IL-6R (Homo sapiens) [2]) [nM] | Substance
1 | – | IL-6 (from UniProt P05231)
– | 2.54 | Tocilizumab
